Source: the Human Domainome abundance scans (Beltran et al. 2025)
± gives the uncertainty stated by the source.

B1: Zinc finger homeobox protein 3, residues 2643 to 2698; numbered along this chain, Q15911 (parent)
chain: RLRTTITPEQLEILYQKYLLDSNPTRKMLDHIAHEVGLKKRVVQVWFQNTRARERK

Variants of: B1
Experiment: abundance fitness (aPCA) (normalised: wild type 0, dead -1); higher = more abundant; growth selection in yeast, the domain comes from the species named
Details: Homo sapiens

Variant	abundance fitness
RLRTTITPEQMEILYQKYLLDSNPTRKMLDHIAHEVGLKKRVVQVWFQNTRARERK [L11M]	-0.032 ± 0.12
RLRTTITPEQNEILYQKYLLDSNPTRKMLDHIAHEVGLKKRVVQVWFQNTRARERK [L11N]	0.305 ± 0.25
RLRTTITPEQLEILYQKYLLDSNPTRKMLDHIAHEVGLKKRVVQVWFQNYRARERK [T50Y]	-0.048 ± 0.15
RLRTTITPEDLEILYQKYLLDSNPTRKMLDHIAHEVGLKKRVVQVWFQNTRARERK [Q10D]	0.224 ± 0.086
RLRTTITPEYLEILYQKYLLDSNPTRKMLDHIAHEVGLKKRVVQVWFQNTRARERK [Q10Y]	-0.792 ± 0.084
RLRTTITPEALEILYQKYLLDSNPTRKMLDHIAHEVGLKKRVVQVWFQNTRARERK [Q10A]	-0.212 ± 0.086
RLRTTITPEQLEILYQKYLLDSNPTRKMLDHIAHEVGLKKRVVQVWFYNTRARERK [Q48Y]	-0.089 ± 0.21
RLRTTITPEQLEILYQKYLLDSNPTRKMLDHIAHEVGLKKRVVQVWFNNTRARERK [Q48N]	-0.21 ± 0.23
RLRTTITPEQLEILYQKYLLDSNPTRKMLDHIAHEVGLKKRVVQVWFDNTRARERK [Q48D]	0.505 ± 0.2
RLRTTITPEQLEILYQKYRLDSNPTRKMLDHIAHEVGLKKRVVQVWFQNTRARERK [L19R]	-0.087 ± 0.078
RLRTTITPEQLEILYQKYYLDSNPTRKMLDHIAHEVGLKKRVVQVWFQNTRARERK [L19Y]	-0.339 ± 0.16
RLRTTITPEQLEILYQKYLLDSNPTRKMLDHIAHEVGLKKRVVQVWFQDTRARERK [N49D]	0.172 ± 0.15
RLRTTITPEQLEILYQKYLLDSNPTRKMLDHIAHEVCLKKRVVQVWFQNTRARERK [G37C]	-0.297 ± 0.087
RLRTTITPEQLEILYQKYLLDSNPTRKMLDHIAHEVGLKKNVVQVWFQNTRARERK [R41N]	0.2 ± 0.36
RLRTTITPEQLEILYQKYLLDSNPTRKMLDHIAHEVGLKKEVVQVWFQNTRARERK [R41E]	0.475 ± 0.12
RLRTTITPEQLEILYQKYLLDSNPTRKMLDHIAHEVGLKKFVVQVWFQNTRARERK [R41F]	-0.203 ± 0.2
RLRTTITPEQLEILYQKYLLDSNPTRKMLDHIAHEVGLKKWVVQVWFQNTRARERK [R41W]	0.055 ± 0.12
RLRTTITPEQLEILYQKYLLDSNPTRKMLDHIAHEVGLKKPVVQVWFQNTRARERK [R41P]	-0.144 ± 0.23
RLRTTITPEQLEILYQKWLLDSNPTRKMLDHIAHEVGLKKRVVQVWFQNTRARERK [Y18W]	-0.401 ± 0.13
RLRTTITPEQLEILYQKYLLDSNPTHKMLDHIAHEVGLKKRVVQVWFQNTRARERK [R26H]	0.324 ± 0.16
RLRTTITPEQLEILYQKYLLDSNPTSKMLDHIAHEVGLKKRVVQVWFQNTRARERK [R26S]	0.428 ± 0.08
RLRTTITPEQLEILYQKYLLDSNPTAKMLDHIAHEVGLKKRVVQVWFQNTRARERK [R26A]	0.434 ± 0.088
RLRTTITPEQLEILYQKYLLDSNPTCKMLDHIAHEVGLKKRVVQVWFQNTRARERK [R26C]	0.306 ± 0.1
RNRTTITPEQLEILYQKYLLDSNPTRKMLDHIAHEVGLKKRVVQVWFQNTRARERK [L2N]	0.232 ± 0.21

Variant	abundance fitness
RLDTTITPEQLEILYQKYLLDSNPTRKMLDHIAHEVGLKKRVVQVWFQNTRARERK [R3D]	0.543 ± 0.11
ILRTTITPEQLEILYQKYLLDSNPTRKMLDHIAHEVGLKKRVVQVWFQNTRARERK [R1I]	-0.063 ± 0.41
RLRTTITPEQLEILYQKYLLDVNPTRKMLDHIAHEVGLKKRVVQVWFQNTRARERK [S22V]	-0.395 ± 0.081
RLRTTITPEQLEILYQKYLLDSNPPRKMLDHIAHEVGLKKRVVQVWFQNTRARERK [T25P]	-0.145 ± 0.12
RLRTTITPEQLEILYQKYLLDSNPTRKMLDHVAHEVGLKKRVVQVWFQNTRARERK [I32V]	-0.078 ± 0.084
RLRTTITPEQLEILYQKYLLDSNPTRKMLDHIAHEVGLKKRVVQVWFQNTRAREKK [R55K]	0.496 ± 0.27
RLRTTITPEQLEILYQKYLLDSNPTRKMLDHIAHEVGLKKRVVQVWFQNTRAREIK [R55I]	0.142 ± 0.18
RLRTTITPEQLEILYQKYLLDSNPTRKMLDHIAHEVGLKKRVVQVWFQNTRARESK [R55S]	0.347 ± 0.094
RLRTTITPEQLEILYQKYLLDSNPTRKMLDHIAHEVGLKARVVQVWFQNTRARERK [K40A]	0.144 ± 0.08
RLRTTITPEQLEILYQKYLLDSNPTRKMLDHIAHEVGLKLRVVQVWFQNTRARERK [K40L]	0.283 ± 0.09
RLRTTITPEQLEILYQKYLLDSNPTRKMLDHIAHEVGLKKRCVQVWFQNTRARERK [V42C]	-0.021 ± 0.12
RLRTTITPEQLEILYQKYLLDSNPTRKMLDHIAHEVGLKKRWVQVWFQNTRARERK [V42W]	-0.048 ± 0.1
RLRTTITPEQLEILYQKYLLDSNPTRKMLDHIAHEDGLKKRVVQVWFQNTRARERK [V36D]	-0.853 ± 0.2
RLRTTITPEQLEILYQKYLLDSNPTRKMLDHIAHEFGLKKRVVQVWFQNTRARERK [V36F]	-0.568 ± 0.15
RLRTTITPEQLEILYQKYLLDSNPTRKMLDHIAHERGLKKRVVQVWFQNTRARERK [V36R]	-0.82 ± 0.11
RLRTTITPEQLEILYQKYLLDSNPTRKMLDHIAHEVGLKKRVVQVWFQNTRAYERK [R53Y]	-0.327 ± 0.15
RLRTTITPEQLEILYQKYLLDSNPTRKMLDHIAHEVGLKKRVVQVWTQNTRARERK [F47T]	-0.997 ± 0.19
RLRTTITPEQLEILYQKYLLDSNPTRKMLDHIAHEVGLKKRVVQVWIQNTRARERK [F47I]	-1.01 ± 0.25
RLRTTITPEQLEILYQKYLLDSNPTRKMLDHIAHEVGLKKRVVQVWPQNTRARERK [F47P]	-1.04 ± 0.21
RLRTTITPEQLEILYQGYLLDSNPTRKMLDHIAHEVGLKKRVVQVWFQNTRARERK [K17G]	-0.528 ± 0.083
RLRTTITPEQLEILYQMYLLDSNPTRKMLDHIAHEVGLKKRVVQVWFQNTRARERK [K17M]	0.114 ± 0.13
RLRTTITPEQLEILYQVYLLDSNPTRKMLDHIAHEVGLKKRVVQVWFQNTRARERK [K17V]	-0.52 ± 0.093
RLRTTITPEQLEILYQKYLLDSNPTRKMLHHIAHEVGLKKRVVQVWFQNTRARERK [D30H]	0.007 ± 0.15
